Experimental data as given in publication PMC7515635 (2020).

B1: GST-ATG8A (natural protein)
chain: MAKSSFKISNPLEARMSESSRIREKYPDRIPVIVEKAGQSDVPDIDKKKYLVPADLTVGQFVYVVRKRIKLGAEKAIFVFVKNTLPPTAALMSAIYEEHKDEDGFLYMTYSGENTFG
B2: HIS6-AtC53 (natural protein)
chain: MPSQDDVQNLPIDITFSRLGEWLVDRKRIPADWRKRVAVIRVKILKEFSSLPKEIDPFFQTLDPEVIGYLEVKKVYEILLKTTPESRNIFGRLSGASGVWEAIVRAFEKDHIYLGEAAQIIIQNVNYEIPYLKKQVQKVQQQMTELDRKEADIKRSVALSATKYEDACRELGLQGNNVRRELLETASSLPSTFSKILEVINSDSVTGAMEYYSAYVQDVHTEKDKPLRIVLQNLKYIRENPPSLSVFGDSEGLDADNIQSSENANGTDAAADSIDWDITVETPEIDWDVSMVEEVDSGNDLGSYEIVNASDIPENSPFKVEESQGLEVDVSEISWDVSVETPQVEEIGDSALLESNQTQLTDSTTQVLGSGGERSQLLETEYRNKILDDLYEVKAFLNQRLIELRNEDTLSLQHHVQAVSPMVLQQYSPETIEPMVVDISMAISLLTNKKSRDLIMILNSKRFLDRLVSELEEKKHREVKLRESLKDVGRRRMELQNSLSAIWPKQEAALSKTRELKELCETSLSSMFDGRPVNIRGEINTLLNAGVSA
B3: GST-GABARAP (natural protein)
chain: MKFVYKEEHPFEKRRSEGEKIRKKYPDRVPVIVEKAPKARIGDLDKKKYLVPSDLTVGQFYFLIRKRIHLRAEDALFFFVNNVIPPTSATMGQLYQEHHEEDFFLYIAYSDESVYGL

Experiments:
AIM wt peptide = experiment: SPR
GST-ATG8A = target: B1; experiment: SPR; derived from AIM wt peptide competition

Binder: B1
- Kd (AIM wt peptide): 5.88 µM

Binder: B2
- Kd (GST-ATG8A): ~1.39 µM

Binder: B3
- Kd (AIM wt peptide): 1.64 µM
